Source: patent US20140072613A1, “Compositions and Methods for Treating Cutaneous Scarring” (priority 2012, published 2014)

What was measured:
Test in all cases: biochemical
Assay type in all cases: biochemical
266 human kinases [1] = target: 266 human kinases (Homo sapiens, UniProt P08581, Y1230H); conditions: Met(Y1248H)(h); 100 μM
Outline: (§1)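 Kinase phosphorylates cationic substrate with radiolabelled ATP phosphate; substrate retained on anionic filter membrane; scintillation count; % of 100% activity control.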

266 human kinases [2] = target: 266 human kinases (Homo sapiens, UniProt P08631); conditions: 100 μM
Sequence of 266 human kinases (Homo sapiens, UniProt P08631) (P08631 whole entry): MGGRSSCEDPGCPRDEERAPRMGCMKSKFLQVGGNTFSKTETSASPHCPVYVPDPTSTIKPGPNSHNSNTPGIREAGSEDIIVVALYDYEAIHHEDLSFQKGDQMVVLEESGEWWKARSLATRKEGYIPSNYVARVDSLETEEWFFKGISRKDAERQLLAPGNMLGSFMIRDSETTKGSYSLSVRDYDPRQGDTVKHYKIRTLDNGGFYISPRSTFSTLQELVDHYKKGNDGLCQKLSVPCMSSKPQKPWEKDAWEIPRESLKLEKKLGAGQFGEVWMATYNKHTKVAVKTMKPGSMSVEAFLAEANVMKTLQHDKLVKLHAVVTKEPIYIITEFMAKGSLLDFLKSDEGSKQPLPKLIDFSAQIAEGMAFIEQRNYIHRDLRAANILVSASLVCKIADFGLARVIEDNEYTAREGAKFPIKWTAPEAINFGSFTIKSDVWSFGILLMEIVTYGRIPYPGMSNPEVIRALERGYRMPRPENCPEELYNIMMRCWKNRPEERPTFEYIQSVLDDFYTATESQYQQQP
Outline: as §1

266 human kinases [3] = target: 266 human kinases (Homo sapiens, UniProt P15735); conditions: PhKγ2(h); 100 μM
Sequence of 266 human kinases (Homo sapiens, UniProt P15735) (P15735 whole entry): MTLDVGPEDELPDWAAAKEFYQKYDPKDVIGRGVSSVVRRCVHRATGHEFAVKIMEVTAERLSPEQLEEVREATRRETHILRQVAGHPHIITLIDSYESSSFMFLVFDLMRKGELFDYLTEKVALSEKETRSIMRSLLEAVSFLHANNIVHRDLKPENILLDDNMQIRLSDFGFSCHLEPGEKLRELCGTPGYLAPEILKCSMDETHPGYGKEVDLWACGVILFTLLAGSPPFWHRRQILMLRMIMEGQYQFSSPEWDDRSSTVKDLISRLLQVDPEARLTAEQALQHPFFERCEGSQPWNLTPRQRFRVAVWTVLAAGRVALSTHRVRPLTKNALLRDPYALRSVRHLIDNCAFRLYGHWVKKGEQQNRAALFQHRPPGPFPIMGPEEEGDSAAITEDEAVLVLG
Outline: as §1

266 human kinases [4] = target: 266 human kinases (Homo sapiens, UniProt P31751); conditions: PKBβ(h); 100 μM
Outline: as §1

266 human kinases [5] = target: 266 human kinases (Homo sapiens, UniProt P41240); conditions: CSK(h); 100 μM
Sequence of 266 human kinases (Homo sapiens, UniProt P41240) (P41240 whole entry): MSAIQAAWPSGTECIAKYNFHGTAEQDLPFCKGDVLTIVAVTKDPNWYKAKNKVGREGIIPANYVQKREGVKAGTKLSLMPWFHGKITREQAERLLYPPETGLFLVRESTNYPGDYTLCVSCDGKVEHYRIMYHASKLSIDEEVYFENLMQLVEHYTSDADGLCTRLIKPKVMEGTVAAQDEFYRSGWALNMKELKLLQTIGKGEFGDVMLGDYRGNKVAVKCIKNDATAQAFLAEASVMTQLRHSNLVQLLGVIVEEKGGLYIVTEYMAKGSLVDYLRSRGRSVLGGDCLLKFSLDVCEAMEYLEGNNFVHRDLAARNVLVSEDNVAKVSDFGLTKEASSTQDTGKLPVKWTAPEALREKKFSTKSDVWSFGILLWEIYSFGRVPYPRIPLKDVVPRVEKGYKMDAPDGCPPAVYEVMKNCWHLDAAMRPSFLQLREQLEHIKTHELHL
Outline: as §1

266 human kinases [6] = target: 266 human kinases (Homo sapiens, UniProt P49761); conditions: CLK3(h); 100 μM
Sequence of 266 human kinases (Homo sapiens, UniProt P49761) (P49761 whole entry): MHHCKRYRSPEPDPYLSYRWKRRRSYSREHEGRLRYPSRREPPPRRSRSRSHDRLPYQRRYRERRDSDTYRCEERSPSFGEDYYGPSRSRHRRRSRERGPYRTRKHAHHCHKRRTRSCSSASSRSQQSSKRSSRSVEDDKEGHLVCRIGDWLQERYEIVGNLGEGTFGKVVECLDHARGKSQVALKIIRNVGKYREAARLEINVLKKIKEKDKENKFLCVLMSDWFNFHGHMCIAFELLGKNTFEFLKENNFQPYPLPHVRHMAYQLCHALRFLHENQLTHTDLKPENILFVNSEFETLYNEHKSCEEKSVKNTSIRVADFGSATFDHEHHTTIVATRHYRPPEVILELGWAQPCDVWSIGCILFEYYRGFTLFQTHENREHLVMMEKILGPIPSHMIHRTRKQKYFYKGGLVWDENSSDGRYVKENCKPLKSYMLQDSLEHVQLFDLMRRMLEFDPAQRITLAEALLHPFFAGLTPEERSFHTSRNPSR
Outline: as §1

266 human kinases [7] = target: T1, 266 human kinases (Homo sapiens, UniProt P54762); conditions: EphB1(h); 100 μM
T1 sequence (P54762 18-984): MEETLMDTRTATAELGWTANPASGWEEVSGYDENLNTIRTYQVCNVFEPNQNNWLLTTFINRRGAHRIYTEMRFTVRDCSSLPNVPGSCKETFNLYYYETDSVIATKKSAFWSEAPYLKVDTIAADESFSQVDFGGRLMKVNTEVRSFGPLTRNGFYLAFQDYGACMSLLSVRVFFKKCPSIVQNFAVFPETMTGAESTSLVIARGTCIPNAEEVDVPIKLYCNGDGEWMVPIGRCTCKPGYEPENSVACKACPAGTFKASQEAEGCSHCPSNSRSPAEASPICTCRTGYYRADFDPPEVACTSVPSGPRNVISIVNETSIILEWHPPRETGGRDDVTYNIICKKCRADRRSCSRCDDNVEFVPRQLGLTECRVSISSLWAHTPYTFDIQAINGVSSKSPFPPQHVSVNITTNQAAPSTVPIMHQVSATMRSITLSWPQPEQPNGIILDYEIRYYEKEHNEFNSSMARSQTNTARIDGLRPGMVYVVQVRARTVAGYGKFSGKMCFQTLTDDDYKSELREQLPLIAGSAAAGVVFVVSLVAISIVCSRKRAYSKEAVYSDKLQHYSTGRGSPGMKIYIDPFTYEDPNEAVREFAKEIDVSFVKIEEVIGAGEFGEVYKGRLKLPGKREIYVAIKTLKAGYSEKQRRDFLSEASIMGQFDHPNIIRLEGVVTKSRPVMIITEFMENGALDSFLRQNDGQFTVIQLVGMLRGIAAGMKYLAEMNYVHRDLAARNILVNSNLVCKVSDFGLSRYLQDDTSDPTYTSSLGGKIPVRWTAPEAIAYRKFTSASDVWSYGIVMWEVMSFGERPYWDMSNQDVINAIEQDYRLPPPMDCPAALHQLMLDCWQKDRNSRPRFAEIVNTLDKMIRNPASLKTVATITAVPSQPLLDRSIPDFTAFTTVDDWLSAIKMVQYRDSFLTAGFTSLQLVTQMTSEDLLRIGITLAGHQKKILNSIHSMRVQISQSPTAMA
Outline: as §1

266 human kinases [8] = target: 266 human kinases (Homo sapiens, UniProt Q05397); conditions: FAK(h); 100 μM
Sequence of 266 human kinases (Homo sapiens, UniProt Q05397) (Q05397 whole entry): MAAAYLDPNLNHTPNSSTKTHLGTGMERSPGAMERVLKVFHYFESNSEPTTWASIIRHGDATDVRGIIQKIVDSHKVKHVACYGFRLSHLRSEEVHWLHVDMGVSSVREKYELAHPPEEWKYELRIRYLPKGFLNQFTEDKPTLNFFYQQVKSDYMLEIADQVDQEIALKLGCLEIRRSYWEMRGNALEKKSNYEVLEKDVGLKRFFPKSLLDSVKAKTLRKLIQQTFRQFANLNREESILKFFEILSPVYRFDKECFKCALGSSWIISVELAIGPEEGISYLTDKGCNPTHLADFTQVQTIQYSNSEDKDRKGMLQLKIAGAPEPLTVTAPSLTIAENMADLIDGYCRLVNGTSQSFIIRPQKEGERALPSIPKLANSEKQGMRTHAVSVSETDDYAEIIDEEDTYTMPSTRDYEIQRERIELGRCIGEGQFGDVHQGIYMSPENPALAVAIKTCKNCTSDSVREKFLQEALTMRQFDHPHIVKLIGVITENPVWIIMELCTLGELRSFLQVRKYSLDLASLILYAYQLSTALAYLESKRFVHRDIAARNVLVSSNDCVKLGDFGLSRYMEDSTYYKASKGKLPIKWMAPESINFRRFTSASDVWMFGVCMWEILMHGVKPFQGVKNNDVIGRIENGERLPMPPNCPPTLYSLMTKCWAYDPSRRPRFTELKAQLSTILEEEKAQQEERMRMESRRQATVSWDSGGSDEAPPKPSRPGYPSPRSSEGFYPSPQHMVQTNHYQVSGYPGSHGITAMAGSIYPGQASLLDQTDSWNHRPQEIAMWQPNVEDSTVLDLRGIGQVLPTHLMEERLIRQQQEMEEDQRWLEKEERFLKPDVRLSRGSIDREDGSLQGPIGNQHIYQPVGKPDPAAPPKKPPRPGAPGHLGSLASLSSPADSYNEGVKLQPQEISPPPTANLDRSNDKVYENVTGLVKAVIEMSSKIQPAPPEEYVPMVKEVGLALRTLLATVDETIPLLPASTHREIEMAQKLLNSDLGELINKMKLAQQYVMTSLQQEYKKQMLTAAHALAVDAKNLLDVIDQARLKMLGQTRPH
Outline: as §1

266 human kinases [9] = target: T2, 266 human kinases (Homo sapiens, UniProt Q06418); conditions: Rse(h); 100 μM
T2 sequence (Q06418 41-890): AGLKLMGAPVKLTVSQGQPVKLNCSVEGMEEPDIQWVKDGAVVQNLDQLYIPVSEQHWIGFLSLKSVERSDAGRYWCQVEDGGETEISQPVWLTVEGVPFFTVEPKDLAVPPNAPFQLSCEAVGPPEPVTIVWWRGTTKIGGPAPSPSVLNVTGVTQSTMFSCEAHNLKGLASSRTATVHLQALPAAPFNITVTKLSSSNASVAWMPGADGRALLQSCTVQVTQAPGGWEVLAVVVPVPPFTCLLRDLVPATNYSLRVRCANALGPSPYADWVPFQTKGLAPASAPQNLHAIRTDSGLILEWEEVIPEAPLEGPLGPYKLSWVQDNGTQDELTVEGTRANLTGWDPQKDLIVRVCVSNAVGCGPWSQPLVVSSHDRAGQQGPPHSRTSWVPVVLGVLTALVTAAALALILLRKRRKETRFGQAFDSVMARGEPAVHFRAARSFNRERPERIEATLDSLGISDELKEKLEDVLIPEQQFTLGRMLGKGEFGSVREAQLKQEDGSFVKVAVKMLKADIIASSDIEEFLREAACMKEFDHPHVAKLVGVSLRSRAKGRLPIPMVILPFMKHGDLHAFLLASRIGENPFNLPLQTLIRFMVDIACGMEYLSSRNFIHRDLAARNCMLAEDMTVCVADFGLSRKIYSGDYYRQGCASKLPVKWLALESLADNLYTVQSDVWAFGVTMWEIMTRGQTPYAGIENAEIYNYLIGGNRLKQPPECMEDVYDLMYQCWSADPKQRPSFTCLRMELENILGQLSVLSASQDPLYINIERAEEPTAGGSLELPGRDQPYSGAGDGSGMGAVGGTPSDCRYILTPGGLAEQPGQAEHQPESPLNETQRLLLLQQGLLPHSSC
Outline: as §1

266 human kinases [10] = target: 266 human kinases (Homo sapiens, UniProt Q13131); conditions: AMPKα1(h); 100 μM
Sequence of 266 human kinases (Homo sapiens, UniProt Q13131) (Q13131 whole entry): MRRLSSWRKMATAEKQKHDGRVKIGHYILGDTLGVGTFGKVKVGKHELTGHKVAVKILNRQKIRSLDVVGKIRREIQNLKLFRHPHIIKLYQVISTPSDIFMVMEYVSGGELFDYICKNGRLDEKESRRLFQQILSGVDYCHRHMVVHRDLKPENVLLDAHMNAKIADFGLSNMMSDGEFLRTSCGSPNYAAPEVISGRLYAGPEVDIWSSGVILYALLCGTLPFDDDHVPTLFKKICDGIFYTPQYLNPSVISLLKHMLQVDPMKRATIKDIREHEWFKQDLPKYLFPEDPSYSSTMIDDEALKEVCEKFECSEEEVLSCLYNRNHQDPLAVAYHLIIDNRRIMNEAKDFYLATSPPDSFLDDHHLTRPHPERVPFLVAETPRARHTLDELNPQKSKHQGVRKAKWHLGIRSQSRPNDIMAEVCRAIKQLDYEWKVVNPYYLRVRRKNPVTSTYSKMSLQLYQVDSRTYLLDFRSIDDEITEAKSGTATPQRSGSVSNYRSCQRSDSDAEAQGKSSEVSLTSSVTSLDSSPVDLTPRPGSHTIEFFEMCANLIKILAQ
Outline: as §1

266 human kinases [11] = target: 266 human kinases (Homo sapiens, UniProt Q16539, T106M); conditions: SAPK2a(T106M)(h); 100 μM
Outline: as §1

266 human kinases [12] = target: 266 human kinases (Homo sapiens, UniProt Q9P286); conditions: PAK5(h); 100 μM
Sequence of 266 human kinases (Homo sapiens, UniProt Q9P286) (Q9P286 whole entry): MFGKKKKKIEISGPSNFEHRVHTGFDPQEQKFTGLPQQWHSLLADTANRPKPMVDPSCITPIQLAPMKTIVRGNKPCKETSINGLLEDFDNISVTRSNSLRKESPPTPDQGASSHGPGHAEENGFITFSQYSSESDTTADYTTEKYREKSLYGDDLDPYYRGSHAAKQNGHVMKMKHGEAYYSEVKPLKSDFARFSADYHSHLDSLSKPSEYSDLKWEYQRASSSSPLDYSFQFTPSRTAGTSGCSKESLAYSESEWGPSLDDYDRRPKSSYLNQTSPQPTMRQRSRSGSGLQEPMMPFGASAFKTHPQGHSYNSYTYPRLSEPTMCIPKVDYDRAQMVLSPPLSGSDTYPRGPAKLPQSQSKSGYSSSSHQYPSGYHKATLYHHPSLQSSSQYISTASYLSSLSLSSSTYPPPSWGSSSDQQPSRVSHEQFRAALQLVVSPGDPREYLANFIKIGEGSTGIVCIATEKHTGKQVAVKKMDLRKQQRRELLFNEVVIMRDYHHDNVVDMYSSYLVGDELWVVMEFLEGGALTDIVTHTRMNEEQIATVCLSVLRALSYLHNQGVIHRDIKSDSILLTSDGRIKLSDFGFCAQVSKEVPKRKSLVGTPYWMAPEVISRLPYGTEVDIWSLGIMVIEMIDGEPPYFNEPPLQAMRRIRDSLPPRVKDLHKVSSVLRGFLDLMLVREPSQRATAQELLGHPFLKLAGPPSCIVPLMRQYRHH
Outline: as §1

266 human kinases [13] = target: 266 human kinases (Homo sapiens, UniProt Q9UK32); conditions: Rsk4(h); 100 μM
Sequence of 266 human kinases (Homo sapiens, UniProt Q9UK32) (Q9UK32 whole entry): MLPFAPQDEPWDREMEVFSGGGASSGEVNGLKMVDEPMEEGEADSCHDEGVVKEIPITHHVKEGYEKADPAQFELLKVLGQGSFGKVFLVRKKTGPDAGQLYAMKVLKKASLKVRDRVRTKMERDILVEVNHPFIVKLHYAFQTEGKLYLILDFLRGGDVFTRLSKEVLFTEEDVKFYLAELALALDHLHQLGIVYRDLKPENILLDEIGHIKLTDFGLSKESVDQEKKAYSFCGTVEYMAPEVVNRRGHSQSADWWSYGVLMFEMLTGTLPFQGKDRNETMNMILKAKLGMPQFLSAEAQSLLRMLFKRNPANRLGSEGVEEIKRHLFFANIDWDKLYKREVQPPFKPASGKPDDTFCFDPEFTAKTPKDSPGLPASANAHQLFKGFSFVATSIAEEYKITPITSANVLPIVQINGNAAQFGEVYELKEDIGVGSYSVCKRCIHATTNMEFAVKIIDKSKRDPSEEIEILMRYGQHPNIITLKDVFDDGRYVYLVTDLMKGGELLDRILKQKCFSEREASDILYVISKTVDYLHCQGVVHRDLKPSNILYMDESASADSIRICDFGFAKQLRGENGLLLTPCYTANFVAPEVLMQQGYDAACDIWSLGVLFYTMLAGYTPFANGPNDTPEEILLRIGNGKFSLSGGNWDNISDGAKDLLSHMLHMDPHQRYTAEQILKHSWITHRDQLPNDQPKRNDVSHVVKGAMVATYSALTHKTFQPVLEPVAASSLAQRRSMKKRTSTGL
Outline: as §1

| Sequence | % activity (266 human kinases [1]) [%] | % activity (266 human kinases [2]; Hck(h) activated) [%] | % activity (266 human kinases [2]; Hck(h)) [%] | % activity (266 human kinases [3]) [%] | % activity (266 human kinases [4]) [%] | % activity (266 human kinases [5]) [%] | % activity (266 human kinases [6]) [%] | % activity (266 human kinases [7]) [%] | % activity (266 human kinases [8]) [%] | % activity (266 human kinases [9]) [%] | % activity (266 human kinases [10]) [%] | % activity (266 human kinases [11]) [%] | % activity (266 human kinases [12]) [%] | % activity (266 human kinases [13]) [%] |
| --- | --- | --- | --- | --- | --- | --- | --- | --- | --- | --- | --- | --- | --- | --- |
| HRRIKAWLKKIKALARQLGVAA (mammal) [MMI-0500] | 126 | 67 | 78 | 16 | 21 | 2 | 76 | 37 | 94 | 63 | 35 | 32 | 125 | 29 |
| YARAAARQARAKALNRQLGVA (mammal) [MMI-0200] | 153 | 100 |  | 86 | 250 | 33 | 76 | 95 | 110 | 88 | 108 | 100 | 100 | 125 |
